PMC12487888, “Molecular basis of the biogenesis of a protein organelle for ethanolamine utilization” (Science Advances, 2025)
Substitutions are numbered along the chain they refer to.

T1: EutQ (residues 1 to 229) (S. Typhimurium LT2, UniProt Q9ZFV5 1-229)
T1 construct: About 25 kDa per monomer, about 50 kDa dimer by SEC-MALS; Uniformly 15N-labelled for NMR; also called full-length EutQ; WT EutQ; source: E. coli BL21 (DE3) star, purified (His-trap, SEC on S200 Superdex)
T1 sequence: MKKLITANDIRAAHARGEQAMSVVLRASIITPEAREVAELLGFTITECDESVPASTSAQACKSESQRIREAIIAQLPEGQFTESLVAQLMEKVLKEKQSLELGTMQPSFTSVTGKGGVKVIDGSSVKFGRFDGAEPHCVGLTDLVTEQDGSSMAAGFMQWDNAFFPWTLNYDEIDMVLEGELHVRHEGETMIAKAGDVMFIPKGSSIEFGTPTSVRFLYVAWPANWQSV

T2: EutQ N-terminal domain fused with GB1 at its C terminus (EutQ^1–99-GB1) (S. Typhimurium LT2, UniProt Q9ZFV5 1-99)
T2 construct: EutQ of S. Typhimurium LT2, N-terminal region, residues 1-99 (helices H1 to H4); Cloned into pETM11; Order of the chain: EutQ 1-99, hexahistidine tag, GB1; Uniformly 15N-labelled (15N, 13C for assignment) for NMR; also called N-terminal region of EutQ; source: E. coli BL21 (DE3) star, purified (His-trap, SEC on S200 Superdex)
T2 sequence: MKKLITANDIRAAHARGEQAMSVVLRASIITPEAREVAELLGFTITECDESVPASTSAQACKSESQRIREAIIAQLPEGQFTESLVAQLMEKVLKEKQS

T3: EutQ Q75A (S. Typhimurium LT2, UniProt Q9ZFV5 1-229, Q75A)
T3 construct: EutQ of S. Typhimurium LT2 with the point mutation Q75A; also called Q75A mutant
T3 sequence: T1 sequence with Q75A

T4: EutQ-strep (S. Typhimurium LT2, UniProt Q9ZFV5 1-229)
T4 construct: EutQ of S. Typhimurium LT2; the eutQ gene was inserted into pET-22b (+); source: E. coli BL21(DE3), purified (Strep-tag XT, gel filtration); not shown: Strep tag, C-terminal, kept
T4 sequence: T1 sequence

T5: EutQ-his (S. Typhimurium LT2, UniProt Q9ZFV5 1-229, dye on the His tag (His-tagged target proteins were labelled with dyes))
T5 construct: EutQ of S. Typhimurium LT2; the eutQ gene was inserted into pET-22b (+); source: E. coli BL21(DE3), purified (Ni-NTA, gel filtration); not shown: His tag, C-terminal, kept
T5 sequence (looked up): T1 sequence

B1: EutC^1–20 encapsulation peptide (peptide)
peptide: MDQKQIEEIVRSVMASMGQD
notes: EutC of S. Typhimurium LT2, N-terminal encapsulation peptide, residues 1-20; also called EutC peptide; EP of EutC; source: synthetic peptide (GenicBio)
B2: EutM-his (natural protein)
chain: MEALGMIETRGLVALIEASDAMVKAARVKLVGVKQIGGGLCTAMVRGDVAACKAATDAGAAAAQRIGELVSVHVIPRPHGDLEEVFPISFKGDSNI
modifications: dye on the His tag (His-tagged target proteins were labelled with dyes)
notes: shell protein EutM of S. Typhimurium LT2; the eutM gene was inserted into pET-22b (+); source: E. coli BL21(DE3), purified (Ni-NTA, gel filtration); not shown: His tag, C-terminal, kept
B3: EutL-strep (natural protein, S. Typhimurium LT2, UniProt P0A1C9 1-219, looked up)
chain: MPALDLIRPSVTAMRVIASVNDGFARELKLPPHIRSLGLITADSDDVTYIAADEATKQAMVEVVYGRSLYAGAAHGPSPTAGEVLIMLGGPNPAEVRAGLDAMVASIENGAAFQWANDAENTAFLAHVVSRTGSYLSSTAGIALGDPMAYLVAPPLEATFGIDAAMKSADVQLVTYVPPPSETNYSAAFLTGSQAACKAACNAFTDAVLDIARNPVQRA
notes: shell protein EutL of S. Typhimurium LT2; the eutL gene was inserted into pET-22b (+); not shown: Strep tag, C-terminal, kept

Legend:
Conditions in all cases: both partners purified
EutQ (residues 1 to 229) = target: T1, EutQ (residues 1 to 229); experiment: ITC; 20 μM protein in the cell, 200 to 400 μM peptide in the syringe; 19 injections, 25°C; 20 mM Na2HPO4, 20 mM NaCl, pH 6.5
[1] = target: T2, EutQ N-terminal domain fused with GB1 …; experiment: as above
EutQ Q75A = target: T3, EutQ Q75A; experiment: ITC; point mutants of EutQ against EutC^1–20 (figs. S25 and S26); the method is not given, the Kd is compared with the ITC Kd of WT EutQ
EutL-strep = target: B3; experiment: MST; His-tagged target protein labelled with dye, 0.25 μM; unlabelled strep-tagged protein in twofold dilution series (EutL up to 24 μM, EutQ up to 108 μM); Monolith NT.115, 25°C, 60% excitation power
EutQ-strep = target: T4, EutQ-strep; experiment: as above
EutQ-his = target: T5, EutQ-his; experiment: as above

Binder: B1
- Kd (EutQ (residues 1 to 229)): 6.35 µM
- dH (EutQ (residues 1 to 229)): -9.24 ± 0.01 kcal/mol
- stoichiometry N (EutQ (residues 1 to 229)): ~2
- Kd [1]: 7.6 µM
- dH [1]: -9.63 ± 0.48 kcal/mol
- stoichiometry N [1]: ~1
- Kd (EutQ Q75A): 21.5 µM

Binder: B2
- binding result (EutL-strep): binds
- binding result (EutQ-strep): binds

Binder: B3
- binding result (EutQ-his): binds
